Assay results from publication PMC8303963, “Action of Multiple Rice β-Glucosidases on Abscisic Acid Glucose Ester” (International Journal of Molecular Sciences, 2021).

Substrate: CC1=CC(=O)CC(C)(C)[C@@]1(O)/C=C/C(C)=C\C(=O)O[C@@H]1O[C@H](CO)[C@@H](O)[C@H](O)[C@H]1O
Assay: glucose release by peroxidase/glucose oxidase assay, Michaelis-Menten fit
Format: biochemical, Oryza sativa
Details: 50 mM sodium acetate pH 5, 30 °C
Text: glucose release by peroxidase/glucose oxidase assay, Michaelis-Menten fit on Os4BGlu12

B1: Os4BGlu12 (Oryza sativa Japonica Group) (protein)
chain: AYNGAGEPPVSRRSFPKGFIFGTASSSYQYEGGAAEGGRGPSIWDTFTHQHPEKIADRSNGDVASDSYHLYKEDVRLMKDMGMDAYRFSISWTRILPNGSLRGGVNKEGIKYYNNLINELLSKGVQPFITLFHWDSPQALEDKYNGFLSPNIINDFKDYAEICFKEFGDRVKNWITFNEPWTFCSNGYATGLFAPGRCSPWEKGNCSVGDSGREPYTACHHQLLAHAETVRLYKAKYQALQKGKIGITLVSHWFVPFSRSKSNDDAAKRAIDFMFGWFMDPLIRGDYPLSMRGLVGNRLPQFTKEQSKLVKGAFDFIGLNYYTANYADNLPPSNGLNNSYTTDSRANLTGVRNGIPIGPQAASPWLYVYPQGFRDLLLYVKENYGNPTVYITENGVDEFNNKTLPLQEALKDDARIEYYHKHLLSLLSAIRDGANVKGYFAWSLLDNFEWSNGYTVRFGINFVDYNDGRKRYPKNSAHWFKKFLLK
notes: recombinant from E. coli, IMAC purified; N-terminal thioredoxin and His6 tags cut off with enterokinase
Km: 10.9 ± 0.9 mM
kcat: 7.5 ± 0.0002 s⁻¹
kcat/Km: 689 M⁻¹ s⁻¹
